Experimental data as given in article PMC11199699.
Residue numbers refer to the chain shown, from its start. In names and notes the source's numbering stands.

How the values were obtained:
Experiment in all cases: purified protein
purified protein [1] = substrate: C[C@H](O)[C@@H](O)CC(=O)C(=O)O; type: biochemical, Homo sapiens; conditions: 1.5 mM NAD+, 50 mM Tris-HCl pH 8.0, 30 °C
purified protein [2] = substrate: O=C(O)[C@@H]1C[C@H](O)CN1; type: biochemical, Homo sapiens; conditions: 1.5 mM NAD+, 50 mM Tris-HCl pH 8.0, 30 °C
purified protein [3] = substrate: C[C@@H](O)CC(=O)O; type: biochemical, Homo sapiens; conditions: 1.5 mM NAD+, 50 mM Tris-HCl pH 8.0, 30 °C, substrate range 1-10 mM (Km extrapolated)
purified protein [4] = substrate: C[C@H](O)[C@@H](O)CC(=O)C(=O)O; type: biochemical, Herbaspirillum huttiense; conditions: 1.5 mM NAD+, 50 mM Tris-HCl pH 8.0, 30 °C
purified protein [5] = substrate: O=C(O)[C@H]1C[C@@H](O)CN1; type: biochemical, Herbaspirillum huttiense; conditions: 1.5 mM NAD+, 50 mM Tris-HCl pH 8.0, 30 °C, substrate range 1-10 mM (Km extrapolated)
purified protein [6] = substrate: O=C(O)C(=O)C[C@H](O)CO; type: biochemical, Herbaspirillum huttiense; conditions: 1.5 mM NAD+, 50 mM Tris-HCl pH 8.0, 30 °C
purified protein [7] = substrate: O=C(O)[C@@H]1C[C@H](O)CN1; type: biochemical, Herbaspirillum huttiense; conditions: 1.5 mM NAD+, 50 mM Tris-HCl pH 8.0, 30 °C
purified protein [8] = substrate: O=C(O)C(=O)C[C@H](O)[C@H](O)CO; type: biochemical, Herbaspirillum huttiense; conditions: 1.5 mM NAD+, 50 mM Tris-HCl pH 8.0, 30 °C
purified protein [9] = substrate: NC(=O)c1ccc[n+]([C@@H]2O[C@H](COP(=O)(O)OP(=O)(O)OC[C@H]3O[C@@H](n4cnc5c(N)ncnc54)[C@H](OP(=O)(O)O)[C@@H]3O)[C@@H](O)[C@H]2O)c1; type: biochemical, Herbaspirillum huttiense; conditions: 10 mM substrate, 50 mM Tris-HCl pH 8.0, 30 °C, varied: cofactor
purified protein [10] = substrate: O=C(O)C(=O)C[C@H](O)[C@@H](O)CO; type: biochemical, Herbaspirillum huttiense; conditions: 1.5 mM NAD+, 50 mM Tris-HCl pH 8.0, 30 °C
purified protein [11] = substrate: O=C(O)[C@@H]1C[C@@H](O)CN1; type: biochemical, Herbaspirillum huttiense; conditions: 1.5 mM NAD+, 50 mM Tris-HCl pH 8.0, 30 °C
purified protein [12] = substrate: NC(=O)c1ccc[n+]([C@@H]2O[C@H](COP(=O)(O)OP(=O)(O)OC[C@H]3O[C@@H](n4cnc5c(N)ncnc54)[C@H](O)[C@@H]3O)[C@@H](O)[C@H]2O)c1; type: biochemical, Herbaspirillum huttiense; conditions: 10 mM substrate, 50 mM Tris-HCl pH 8.0, 30 °C, varied: cofactor
purified protein [13] = substrate: O=C(O)C(=O)C[C@@H](O)CO; type: biochemical, Herbaspirillum huttiense; conditions: 1.5 mM NAD+, 50 mM Tris-HCl pH 8.0, 30 °C
purified protein [14] = substrate: C[C@@H](O)CC(=O)O; type: biochemical, Herbaspirillum huttiense; conditions: 1.5 mM NAD+, 50 mM Tris-HCl pH 8.0, 30 °C

B1: BDH2 (Homo sapiens) (protein)
chain: MGRLDGKVIILTAAAQGIGQAAALAFAREGAKVIATDINESKLQELEKYPGIQTRVLDVTKKKQIDQFANEVERLDVLFNVAGFVHHGTVLDCEEKDWDFSMNLNVRSMYLMIKAFLPKMLAQKSGNIINMSSVASSVKGVVNRCVYSTTKAAVIGLTKSVAADFIQQGIRCNCVCPGTVDTPSLQERIQARGNPEEARNDFLKRQKTGRFATAEEIAMLCVYLASDESAYVTGNPVIIDGGWSL
notes: recombinant (His)6-tagged, expressed in E. coli, purified
With B1 the Km (purified protein [1]) was 32.2 ± 3.3 µM, the kcat (purified protein [1]) was 3.67 ± 0.183 s⁻¹ and the kcat/Km (purified protein [1]) was 114000 ± 5830 M⁻¹ s⁻¹. It also gave a Km (purified protein [2]) of 220 ± 61 µM, a kcat (purified protein [2]) of 4.88 ± 0.5 s⁻¹ and a kcat/Km (purified protein [2]) of 22800 ± 3670 M⁻¹ s⁻¹. It also gave a Km (purified protein [3]) of 18500 ± 2900 µM, a kcat (purified protein [3]) of 0.0698 ± 0.00483 s⁻¹ and a kcat/Km (purified protein [3]) of 3.8 ± 0.333 M⁻¹ s⁻¹.

B2: L-KDFDH (FucF; C785_RS13675) (Herbaspirillum huttiense subsp. putei IAM 15032) (protein)
chain: MSASTGRLAGKTVLITAAAQGIGRASTELFAREGARVIATDISKTHLEELASIAGVETHLLDVTDDDAIKALVAKVGTVDVLFNCAGYVAAGNILECDDKAWDFSFNLNAKAMFHTIRAVLPGMLAKKAGSIVNIASAASSVKGVANRFAYGASKAAVVGLTKSVAADFVSQGIRCNAICPGTIESPSLNQRISTQAKETGKSEDEVRAAFVARQPMGRIGKAEEVAALALYLASDESNFTTGSIHMIDGGWSN
notes: pQE-80L, N-terminal (His)6-tag, expressed in E. coli, Ni-NTA; homotetramer; EC 1.1.1.434
With B2 the Km (purified protein [4]) was 115 ± 15 µM, the kcat (purified protein [4]) was 15 ± 0.317 s⁻¹ and the kcat/Km (purified protein [4]) was 132000 ± 14000 M⁻¹ s⁻¹. For the same protein, the Km (purified protein [5]) was 37800 ± 11500 µM, the Km (purified protein [6]) was 2580 ± 240 µM and the kcat (purified protein [6]) was 27.5 ± 2.03 s⁻¹. It also gave a kcat/Km (purified protein [6]) of 10700 ± 267 M⁻¹ s⁻¹, a Km (purified protein [7]) of 4190 ± 350 µM and a kcat (purified protein [7]) of 0.742 ± 0.0233 s⁻¹. It also gave a kcat/Km (purified protein [7]) of 178 ± 10 M⁻¹ s⁻¹, a Km (purified protein [8]) of 6600 ± 550 µM and a kcat (purified protein [8]) of 8.25 ± 0.35 s⁻¹. The kcat/Km (purified protein [8]) was 1250 ± 55 M⁻¹ s⁻¹, the Km (purified protein [9]) was 1770 ± 300 µM and the kcat (purified protein [9]) was 0.0678 ± 0.01 s⁻¹. For the same protein, the kcat/Km (purified protein [9]) was 38.5 ± 1 M⁻¹ s⁻¹, the Km (purified protein [10]) was 808 ± 73 µM and the kcat (purified protein [10]) was 19.8 ± 1.2 s⁻¹. The kcat/Km (purified protein [10]) was 24700 ± 750 M⁻¹ s⁻¹, the Km (purified protein [11]) was 2260 ± 270 µM and the kcat (purified protein [11]) was 0.00165 ± 0.000105 s⁻¹. For the same protein, the kcat/Km (purified protein [11]) was 0.737 ± 0.045 M⁻¹ s⁻¹, the Km (purified protein [12]) was 30.2 ± 3 µM and the kcat (purified protein [12]) was 29.2 ± 1.3 s⁻¹. The kcat/Km (purified protein [12]) was 972000 ± 58700 M⁻¹ s⁻¹, the Km (purified protein [13]) was 5510 ± 660 µM and the kcat (purified protein [13]) was 3.37 ± 0.183 s⁻¹. The kcat/Km (purified protein [13]) was 615 ± 36.7 M⁻¹ s⁻¹, the Km (purified protein [14]) was 1790 ± 570 µM and the kcat (purified protein [14]) was 0.00137 ± 0.000167 s⁻¹. It also gave a kcat/Km (purified protein [14]) of 0.795 ± 0.137 M⁻¹ s⁻¹.

B3: L-KDFDH (FucF; C785_RS13675) (Herbaspirillum huttiense subsp. putei IAM 15032; D41S/I42R) (protein)
chain: B2 chain with D41S, I42R
notes: as for B2
B3 gave a Km (purified protein [9]) of 200 ± 4 µM, a kcat (purified protein [9]) of 3.6 ± 0.0667 s⁻¹ and a kcat/Km (purified protein [9]) of 18050 ± 83.3 M⁻¹ s⁻¹.

B4: L-KDFDH (FucF; C785_RS13675) (Herbaspirillum huttiense subsp. putei IAM 15032; W252M) (protein)
chain: B2 chain with W252M
notes: as for B2
In the case of B4, the Km (purified protein [4]) is reported as 219 ± 6 µM, the kcat (purified protein [4]) is reported as 6.62 ± 0.167 s⁻¹ and the kcat/Km (purified protein [4]) is reported as 30000 ± 83.3 M⁻¹ s⁻¹.
